# Data: the nanobody polyreactivity screen of Harvey et al. (2022)
# Experiment: yeast display, Sf9 membrane polyspecificity reagent, FACS + sequencing; frameworks hold sequencing errors
# Method in brief: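 Galactose-induced (36–48 hours) yeast carrying a synthetic nanobody display library were exposed to 10% biotinylated, detergent-solubilized Sf9 membrane reagent at 4 °C for 1 hour. FACS followed streptavidin microbead enrichment, using low and high (top ~1%) gates for expression (anti-HA) and reagent binding (streptavidin). Colony PCR, MiSeq 2 × 250 sequencing and CDR-length filtering followed. Labels for polyreactivity reflect the gate of origin.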
row,Sequence,polyreactivity (PSR sort gate)
1,QVQLVESGGGLVQAGGSLRLSCAASGRIFYANVMGWYRQAPGKEREFVSAIRWSGGRSYYADSVKGRFTISRDNAKYTVYLQMNSLKPEDTAVYYCAADGRVQSPQKFGYDYWGQGTQVTVSS,low polyreactivity
2,QVQLVESGGGLVQAGGSLRLSCAASGRIFYAYAMGWYRPAPGKERELVAAITWRGGRTFYADSVKGRFTISRDNAKNTVYLQMNSLKPEDTAVYYCATRGAPYGMDYWGQGTQVTVSS,high polyreactivity
3,QVQLVESGGGLVQAGGSLRLSCAASGRIFYAYAMGWYRQAPGKEREFVAAISKRGGSTYYADSVKGRFTISRDNAKNTVYFQMNSLKPEDTAVYYCAADHEAIVRYDYWGQGTQVTVSS,low polyreactivity
4,QVQLVESGGGLVQAGGSLRLSCAASGRIFYAYAMGWYRQAPGKERELVAAISSGGSTKYADSVKGRFTISRDNAKNTVYLQMNSLKPEDTAVYYCNADATAQSFGTLFDYWGQGTQVTVSS,low polyreactivity
5,QVQLVESGGGLVQAGGSLRLSCAASGRIFYAYAMGWYRQAPGKERELVAAISWSGGSTYYADSVKGRFTISRDNAKNTVNLQMNSLKPEDTAVYYCNADYWGQGTQVTVSS,low polyreactivity
6,QVQLVESGGGLVQAGGSLRLSCAASGRIFYAYAMGWYRQAPGTERELVAAISSGGSTKYADSVKGRFTISRDNAKNTVYLQMNSLKPEDTAVYYCNADATAQSFGSLFDYWGLGTQVTVSS,low polyreactivity
7,QVQLVESGGGLVQAGGSLRLSCAASGRIFYDYTMGWYRQAPGKERELVAAINSGGGSTYYADSVKGRFTISRDNAKNTVYLQMNSLKPEDTAVYYCNADGQWNIWEYDYWGQGTQVTVSS,high polyreactivity
8,QVQLVESGGGLVQAGGSLRLSCAASGRIFYFNAMGWYRPAPGKDRELVADISSGGRTNYADSVKGRFTISRDNAKNTVYLQMNSLKPEDTAVYYCNAEAYTSSGGYRGYDFDYWGQGTQVTVSS,low polyreactivity
9,QVQLVESGGGLVQAGGSLRLSCAASGRIFYFYAMGWYRQAPGKERELVAAIDWSGGSTYYADSVKGRFTISRDNAKNTVYLQMNSLKPEDTAVYSCAARWRSKGVQYYYWGQGSQVTVSS,high polyreactivity
10,QVQLVESGGGLVQAGGSLRLSCAASGRIFYFYVMGWYRQAPGKERELVAGISDGSTNYADSVKGRFTISRDNAKNTVYLQMNSLKPEDTAVYYCAKDPLVIRFVQGRFGYDYWGQGTQVTVSS,low polyreactivity
11,QVQLVESGGGLVQAGGSLRLSCAASGRIFYGNPMGWYRQAPGKERELVAAISSGGGSTYYADSVKGRFTISRDNAKNTVYLQMNSLKPEDTAVYYCAADPVHRFPGTGGYWGQGTQVTVSS,low polyreactivity
12,QVQLVESGGGLVQAGGSLRLSCAASGRIFYGYTMGWYRQAPGKERELVAAITWSGGSTHYADSVKGRFTISRDNAKNTVYLQMNSLKPEVTAVYYCNARRRSVYRGLYDYWGQGTQVTVSS,high polyreactivity
13,QVQLVESGGGLVQAGGSLRLSCAASGRIFYGYTMGWYRQAPGKERELVARISSSGSTYYADSVKGRFTISRDNAKNTVYLQMNSLKPEDTAVYYCAAVRRRYGYDYWGQGTQVTVSS,high polyreactivity
14,QVQLVESGGGLVQAGGSLRLSCAASGRIFYGYVMGLYRQAPGKERELVAAISLSGGRTYYADSVKGRFTISRDNAKNTVYLQMNSLKPEDTAVYYCAAEGIKGISYGHDYWGQGTQVTVSS,low polyreactivity
15,QVQLVESGGGLVQAGGSLRLSCAASGRIFYHYAMGWYRQAPGKERELVAASNSSGGSTHYADSVKGRFTISRDNAKNTVYLQMNSLKPEDTAVYYCAADGYWRDYSGYWDYYYIYDYWGQGTQVTVSS,low polyreactivity
16,QVQLVESGGGLVQAGGSLRLSCAASGRIFYINAMGWYRQAPGKERELVAAISWSGSSTYYADSVKGRFTISRDNAKNTVYLQMNSLKPEDTAVYYCAAVSYKRVDYWGQGTQVTVSS,high polyreactivity

row,Sequence,polyreactivity (PSR sort gate)
1,QVQLVESGGGLVQAGGSLRLSCAASGRIFYINAMGWYRQAPGKERELVAAITGGDGSTTYADSVKGRFTISRDNAKNTVYLQMNSLKPEDTAVYYCNADTARKYAESQFDHWGQGTQVTVSS,low polyreactivity
2,QVQLVESGGGLVQAGGSLRLSCAASGRIFYIYTMGWYRQAPGKEREFVAGINWNGGSTYYADSVKGRFTISRDNAKNTVYLQMISLKPEDSEVYYCNADQYWDRYYYWGQGTQVTVSS,low polyreactivity
3,QVQLVESGGGLVQAGGSLRLSCAASGRIFYKNVMGWYRQAPGKESELVATITRRGGRTFYADSVKGRFTISRDNAKNTVYLQMNSLKPEDTAVYYCATRRRIRSSFYYDIDYWGQGTQVTVSS,high polyreactivity
4,QVQLVESGGGLVQAGGSLRLSCAASGRIFYKYALGGYRQAPGKERELVAAISYSGGSTYYADSVKGRFTISRDNAKNTVYLQMKSLKPEDNAVYYCNAKPPFGVRSWGDYWGQGTQVTVSS,low polyreactivity
5,QVQLVESGGGLVQAGGSLRLSCAASGRIFYKYTMGWYRQAPGKERELVAAITDSDDSTYYADSVKGRFTISRDNAKITVYLQMNSLKPEDTAVYYCAASGPVTESDMDYWGQGTQVTVSS,low polyreactivity
6,QVQLVESGGGLVQAGGSLRLSCAASGRIFYLNAMGWYRQAPGKERELVAAISSRGSRTYYADSVKGRFTISRDNAKNTVYLQMNSLKPEDTAVYYCNVRQRKQPDTDDYWGQGTQVTVSS,high polyreactivity
7,QVQLVESGGGLVQAGGSLRLSCAASGRIFYLNAMGWYRVAPGKERELVAAITRSAASTHYADSVKGRFTISRDNAKNTVYLQMNSLKPEDTAVYYCAARFWYDYRHYDYWGQGTQVTVSS,low polyreactivity
8,QVQLVESGGGLVQAGGSLRLSCAASGRIFYLYAMGWYRQAPGKDRELVAAITWSGGSTTYADSVKGRFTISRDTAKNTVYLQMNSLKPEDTAVYYSNADGWIFPSFSPMDYWGQGTQVTVSS,low polyreactivity
9,QVQLVESGGGLVQAGGSLRLSCAASGRIFYLYAMGWYRQAPGTEREFVASITVSGSSTYYADSVKGRFTISRDNAKNTVYLQMNSLKPEDTAVYYCNTDAVRSYVWWGTSLYDYWGQGTQVTVSS,low polyreactivity
10,QVQLVESGGGLVQAGGSLRLSCAASGRIFYLYGMGWYRQAPGKERELVAAIDWSDGSTYYADSVKGRFTISRDNAKNTVYLQMNSLKPEDTAVYYCAADGWAAWLYDYWGQGTQVTVSS,low polyreactivity
11,QVQLVESGGGLVQAGGSLRLSCAASGRIFYLYTMGWYRQAPGKEREFSTYYADSVKGRFTISRDNAKNTVYLQMNCLKPEDTAVYYCAAADHPPVWYGYWGQGTQVTVSS,low polyreactivity
12,QVQLVESGGGLVQAGGSLRLSCAASGRIFYLYTMGWYRQAPGKERELVAAITRAGRTYYADSVKGRFTISRDNAKNTVYLQMNSLKPEDTAVYYCAAAFLSRVQGYDSWGQGTQVTVSS,high polyreactivity
13,QVQLVESGGGLVQAGGSLRLSCAASGRIFYNNVMGWYRQAPGKERELVAAISGNGGSTYYADSVKGRFTISRDNAKNTVYLQMNSLKPEDTAVYFCAADDLYTDYETWWRRGDYWGQGTQVTVSS,low polyreactivity
14,QVQLVESGGGLVQAGGSLRLSCAASGRIFYNYAMGWYRQAPGKERELVAAITGGASTYADSVKGRFTISRDNAKNTVYLQMNSLKPEDTAVYYCAVDYYTYSLASGRTRMDYWGQGTQVTVSS,high polyreactivity
15,QVQLVESGGGLVQAGGSLRLSCAASGRIFYNYVMGWYRQAPGKERELVAAISSSGGSTYYADSVKGRFTISRDNAKNTVYLQMNSLKPEDTAVYYCGTTRRVPGEYWGQGTQVTVSS,high polyreactivity
16,QVQLVESGGGLVQAGGSLRLSCAASGRIFYPNAMGWYRQARGKERELVAGISSGGGRTYYADSVKGRFTISRDNAKNTVYLQMNSLKPEDTAVYYCATVGRGYDERHNYWGQGTQVTVSS,high polyreactivity
